Data set [1] deals with CS from a Myxococcota species (type III CS) (a Myxococcota species). As to the kind of experiment: mass photometry.
The target in data set [2] is citrate synthase from M. sulfidovorans W150A (M. sulfidovorans). The data set can be described thus: mass photometry.
In data set [3] the target is non-mitochondrial CS (nmCS) from Ananas comosus (Ananas comosus). As to the kind of experiment: cryo-EM structure.
For data set [4] the target is unchanged. The data set can be described thus: mass photometry.
For data set [5] the target is unchanged. The data set can be described thus: mass photometry. This is another data set of the same source.
For data set [6], the target named is non-mitochondrial CS (nmCS) from C. fasciculata (C. fasciculata). The data set can be described thus: mass photometry.
The target of data set [7] is non-mitochondrial CS (nmCS) from Chlamydomonas reinhardtii (Chlamydomonas reinhardtii). The data set can be described thus: mass photometry.
In data set [8] the target is type II CS from C. woesi (C. woesi). As to the kind of experiment: mass photometry.
Data set [9] concerns the target type II CS from F. taffensis (F. taffensis). As to the kind of experiment: mass photometry.
Data set [10] addresses type III CS from Cyanobium sp. PCC 7001 (Cyanobium sp. PCC 7001). The data set can be described thus: mass photometry.
The data set “mass photometry” concerns the molecule itself. As to the kind of experiment: mass photometry.

Consider ten molecules from article PMC11245102 (bioRxiv, 2024).

In general, stoichiometry N refers to a count of units in the complex or per binding partner.

“And” between values parts separate entries of the source, which are not always exact repeats. Identical values can stand only once.

“CS from a Myxococcota species (type III CS) (enzyme)”: the stoichiometry N in [1] amounted to 2. In turn, “citrate synthase from M. sulfidovorans W150A (enzyme)” displayed a stoichiometry N in data set [2] of 2. Regarding “non-mitochondrial CS (nmCS) from Ananas comosus (enzyme)”, the stoichiometry N in data set [3] was 8; in data set [4], 8; in [5], 6 and 8.

Regarding “non-mitochondrial CS (nmCS) from C. fasciculata (enzyme)”, the stoichiometry N in [6] was 6. “non-mitochondrial CS (nmCS) from Chlamydomonas reinhardtii (enzyme)” returned a stoichiometry N in [7] of 2.

type II CS from C. woesi (enzyme) gave a stoichiometry N in [8] of 2. As for type II CS from F. taffensis (enzyme), the stoichiometry N in data set [9] came to 2. “type III CS from Cyanobium sp. PCC 7001 (enzyme)” yielded a stoichiometry N in data set [10] of 2.

B1: non-mitochondrial CS (nmCS) from P. olsenii (enzyme)
chain: MDRLNTVAAHVAPTLTITDNRSGKKIDVKVKDGTIRATDLKQLGIQTYDPGYMNTTCCVSRISFIDGNRGVLRYRGYPIEQLAQDSSFTEVAFLLQYGELPTRGQLTQWEQDLMRHSMLHQDVATLTSAFRYDAHPMGMFVSAMAALGTLHPETNPALTSQNIYKDKAVRNKEIARILGSATTLAAMAYRHRMGRPFNTPNSDLGYTENFLYMLDVSHEGTSYRPHPKLVKALDVLFVLHAEHELNCSTSAMRHLTSSNVDVYTACAAAAGALYGPRHGGANEAVLRMLERIGSIENVPTFVDKVKQRKELLMGFGHRVYKHYDPRATIVRKIAEDVFEICGREPLIEVAMDLERIALSDPYFKDRKLYPNVDFYSGLIYKAMGFPTDMFPILFTVPRLAGWLAHWSEWIDDPENRIYRPFQVYKGYDKRDYVQVDERSEKVHSKELTVKRSAFNRRRDASLQSAAADRSEYEWIKD
Turning to B1, the “stoichiometry N” value in “mass photometry” was 6.

B2: CS from A. comosus Δ487–513 (domain or fragment)
chain: MEGAFDHSALARARLAVLSGHLAAVSAAGGGASPLERSPVSVQEIPPPPRNLGGSLAVIDGRSGKKFEFKISDEGTVRATDFKKITTGKNDKGLKLYDPGYLNTAPVRSSICYIDGDEGILRYRGYPIEELAESSSYPEVAYLLMYGNLPSKSQLADWEFAISQHSAVPQGVLDIIQGMPHDAHPMGVLVCAMSALSVFHPDANPALRGQDLYKSKQLRDKQIVRILGKVPTIAAAAYLRLAGRPPVLPSNNFSYSENFLYMLDSLGNRSYKPNTRLARVLDILFILHAEHEMNCSTAAARHLASSGVDVFTALAGAVGALYGPLHGGANEAVLKMLNEIGTVENIPDFIEGVKNRKRKMSGFGHRVYKNYDPRAKVIRKLAEEVFSIVGRDPLIEVAIALEKAALSDEYFIKRKLYPNVDFYSGLIYRAMGFPTEFFPVLFAIPRMAGYLAHWRESLDDPDTKIMRPQQVYTGVWLRHYTPLQER
In the case of B2, the “stoichiometry N” value in “mass photometry” was determined as 2.
